Measured values: patent US20220119517A1 (NANJING SANHOME PHARMACEUTICAL, published 2022)
Substitutions are numbered along the chain they refer to. Where two headings read alike, the source gives them in different places. Values belong to the binder of their own block, whether it stands above or below them.

How the values were obtained:
[1] = target: T1, human Claudin18.2 (CLDN18.2), full length, on cells (human); assay: FACS on NUGC4 cells, positive rate
T1 construct: also called CLDN18.2-FL; HEK293-CLDN18.2 cells
Procedure: (§1) The effect of the Fc-mutated humanized antibody on the binding to the target CLDN18.2 was identified by FACS. NUGC4 cells were digested using the gastric cancer cell digestion solution at 37° C. for 15 minutes; terminated by the complete culture medium, centrifuged at 1000 rpm for 5 minutes, the supernatant was discarded; the cells were resuspended with 2% fetal bovine serum-PBS diluent, the cells were adjusted to 1×10⁶ cells/ml, 100 μl of cell suspension was added to each well of the 96-well U-shaped-bottom plate; the antibody was diluted with 2% fetal bovine serum-PBS to final concentrations of 5 μg/ml, 1 μg/ml, 0.2 μg/ml, 0.04 μg/ml and 0.008 μg/ml, mixed with the cells in equal volume, incubated at 4° C. for 1 hour; centrifuged at 1000 rpm for 5 minutes, the supernatant was discarded; 200 μl of Cell Stain Buffer (Biolegend) was added to each well to wash twice, centrifuged at 1000 rpm for 5 minutes at each time and the supernatant was discarded; 100 μl of PE-anti human Fc antibody (Biolegend) was added, incubated at 4° C. for 1 hour; washed twice using Cell Stain Buffer (Biolegend), centrifuged at 1000 rpm for 5 minutes at each time and the supernatant was discarded. 300 μl of Cell Stain Buffer was added to resuspend the cells, detected with BD FACS Jazz flow analyzer.

[2] = target: T1, human Claudin18.2 (CLDN18.2), full …; assay: FACS on NUGC4 cells
Excerpt: (§2) Human gastric cancer cells NUGC4 and stably transfected cells CHO-K1-CLDN18.1 (prepared in Example 5) were used respectively, to verify the specificity and affinity of the anti-CLDN18.2 antibodies above at the cellular level by FAGS technology. After antibody affinity maturation and screening in vitro, each antibody can bind to the CLDN18.2 target on NUGC4 cells, but not to CHO-K1-CLDN18.1 cells, as compared with the original 3CHI antibody.

[3] = target: T2, human Claudin18.1 (CLDN18.1), full length, on cells (human, UniProt P56856 1-261); assay: FACS on CHO-K1-CLDN18.1 cells, PE-anti human Fc, MFI
T2 construct: HEK293-CLDN18.1 cells carry a fusion with green fluorescent protein (ZsGreen); CHO-K1-CLDN18.1 cells carry pcDNA3.1-CLDN18.1; The cell line is named under assay; also called CLDN18.1-FL; HEK293-CLDN18.1 cells
Procedure: (§3) CHO-K1-CLDN18.2 cells and CHO-K1-CLDN18.1 cells (prepared in Example 5) were digested with gastric cancer cell digestion solution at 37° C. for 15 minutes, respectively; terminated with complete culture medium, centrifuged at 1000 rpm for 5 minutes, the supernatant was discarded; the cells were resuspended with 2% fetal bovine serum-PBS diluent, the cells were adjusted to 1×10⁶ cells/ml, 100 μl of cell suspension was added to each well of the 96-well U-shaped-bottom plate; 2% fetal bovine serum-PBS was used to dilute the humanized antibody and the control antibody to final concentrations of 10 μg/ml, 2 μg/ml, 0.4 μg/ml, 0.08 μg/ml and 0.016 μg/ml, respectively, mixed well with the cells in equal volume, incubated at 4° C. for 1 hour; centrifuged at 1000 rpm for 5 minutes, the supernatant was discarded; 200 μl Cell Stain Buffer (Biolegend) was added to each well to wash twice, centrifuged at 1000 rpm for 5 minutes at each time and the supernatant was discarded; 100 μl of PE-anti human Fc antibody (Biolegend) was added, incubated at 4° C. for 1 hour; washed with Cell Stain Buffer (Biolegend) twice, centrifuged at 1000 rpm for 5 minutes at each time and the supernatant was discarded. 300 μl Cell Stain Buffer was added to resuspend the cells, and detected by BD FACS Jazz flow cytometry analyzer.

[4] = target: T1, human Claudin18.2 (CLDN18.2), full …; assay: FACS on CHO-K1-CLDN18.2 cells, relative Kd from Graphpad fit
Procedure: as §3, with “analyzer. […]” for “analyzer.”

[5] = target: T2, human Claudin18.1 (CLDN18.1), full …; assay: FACS on CHO-K1-CLDN18.1 cells
Excerpt: as §2

[6] = target: T1, human Claudin18.2 (CLDN18.2), full …; assay: cell-based or functional assay
[7] = target: T1, human Claudin18.2 (CLDN18.2), full …; assay: cell-based or functional assay; remark: listed apart in the source
[8] = target: T3, antigen protein Claudin18.2-His (human, UniProt P56856-2 1-261, limits assumed); assay: BLI (Fortebio Octet RED96), antibody on AHC sensor, Claudin18.2-His in solution, 37 °C
T3 construct: also called CLDN18.2 protein
Procedure: Next, antibodies were immobilized by the AHC sensor, and then combined with different concentrations of antigens, and determination of the affinity was performed according to the manual of Octet RED96.

[9] = target: T1, human Claudin18.2 (CLDN18.2), full …; assay: cell-based or functional assay; remark: listed apart in the source
[10] = target: T1, human Claudin18.2 (CLDN18.2), full …; assay: FACS on CHO-K1-CLDN18.2 cells, Graphpad fit
Procedure: as §3, with “analyzer. […]” for “analyzer.”

[11] = target: T1, human Claudin18.2 (CLDN18.2), full …; assay: cellular ELISA on fixed HEK293-CLDN18.2 cells
Procedure: (§4) HEK293-CLDN18.1 and HEK293-CLDN18.2 cells were resuscitated two weeks in advance, cultured with DMEM complete culture medium containing 10% fetal bovine serum at 37° C., 5% CO₂. When the cells grew to 80%-90% confluency, they were digested with 0.5 mM EDTA-PBS (Sigma) at room temperature, centrifuged at 1000 rpm for 5 minutes, the supernatant was discarded. Cells were resuspended in DMEM complete culture medium, the cell concentration was adjusted to 6×10⁵ cells/ml. Cells were plated on 96-well cell plates (Corning) pre-coated with polylysine at 2.5 μg/well, 100 μl per well, incubated at 37° C., 5% CO₂ for 24 hours, making cells evenly and completely plated on the bottom of the well. The supernatant was aspirated, and the cells were fixed with 4% paraformaldehyde at room temperature for 20 minutes, washed 3 times with 200 μl PBS, 2 minutes at each time. The well plates were blocked with 200 μl of 3% BSA-PBS at 37° C. for 1 hour. Each chimeric antibody was diluted with 3% BSA-PBS to a concentration of 6 μg/ml, and diluted in a 6-fold gradient to a total of 7 concentrations. At the same time, IMAB362-similar-hG1 diluted in the same concentration gradient as the positive control, and human IgG1, kappa isotype control antibody (hereinafter referred to as Isotype, provided by CrownBio (Taicang) Co., Ltd.) as the negative control were added to HEK293-CLDN18.2 and HEK293-CLDN18.1 cell plates, respectively. The cells were incubated at 37° C. for 1 hour, washed 5 times with PBS. Incubation with HRP-anti human IgG (Jackson) diluted 1:10000 in blocking solution was performed at 37° C. for 1 hour followed by washing 5 times with PBS. 100 μl of TMB one-component color developing solution was added, protected from light at room temperature for 5-10 minutes, terminated with 50 μl of 2M sulfuric acid, OD450 was read on the microplate reader. Data processing: the original data was put into GraphPad 5.0 software for plotting and calculation.

[12] = target: T3, antigen protein Claudin18.2-His; assay: BLI (Fortebio Octet RED96), antibody on AHC sensor, CLDN18.2 protein in solution, 37 °C
Procedure: Another method is to verify the affinity of the humanized antibody above at the protein level. The antibody was immobilized by the AHC sensor, and combined with different concentrations of antigens, and affinity determination was performed according to the manual of Octet RED96.

[13] = target: T1, human Claudin18.2 (CLDN18.2), full …; assay: cell-based or functional assay; remark: listed apart in the source
[14] = target: T2, human Claudin18.1 (CLDN18.1), full …; assay: cellular ELISA on fixed HEK293-CLDN18.1 cells, HRP-anti human IgG, OD450
Procedure: as §4

[15] = target: T1, human Claudin18.2 (CLDN18.2), full …; assay: FACS on NUGC4 cells; remark: listed apart in the source
Procedure: as §1

B2: 330CHI (antibody, human IgG1, V domains shown)
VH: EVKLVESGGGLVQPGGSLKLSCAASGFGFSDYGMAWVRQAPRKGPEWVAFISNSAYSIYYADTVTGRFTISRENAKNTLYLEMSSLRSEDTAMYYCARLGRGNSFAYWGQGTLVTVSA
VL: DIVMTQSPSSLTVTAGEKVTMSCKSSQSLLNSGNQKNYLTWYQQKPGQPPKLLIYWGSTRESGVPDRFTGSGSGTDFTLTISSVQAEDLAVYYCQNELFYPLTFGAGTKLELK
notes: chimeric with the constant region of human IgG1; also called chimeric antibody 330CHI
MFI (CLDN18.2) [2]: 63700 MFI
binding result [3]: no binding
Kd [4]: 1.6 nM
MFI (CLDN18.1) [5]: 49 MFI
in-vitro ADCC activity, Jurkat-CD16A/NF luciferase reporter, EC50 [7]: 0.22 nM
in-vitro ADCC activity, Jurkat-CD16A/NF luciferase reporter, Top [7]: 215000
Kd [8]: 0.84 nM
koff [8]: 0.000117 s⁻¹
kon [8]: 139000 M⁻¹ s⁻¹
ADCC activity by luciferase labeling, EC50 [9]: 0.18 nM
ADCC activity by luciferase labeling, Top [9]: 64500
Bmax (MFI) [10]: 10800 MFI
Kd [12]: 0.249 nM
koff [12]: 3.23e-05 s⁻¹
kon [12]: 130000 M⁻¹ s⁻¹

B3: 3CHI (antibody, V domains shown)
VH: B2 VH with G28T, S54L, R101Y
VL: B2 VL with G57A, E97D, L98Y, F99S
notes: Human-murine chimeric antibody with the constant region of human IgG1; also called chimeric antibody of S5H3B6; original 3CHI antibody
MFI (CLDN18.2) [2]: 2510 MFI
binding result [14]: no binding (tested: 6000 ng/ml)
MFI (CLDN18.1) [5]: 76 MFI
in-vitro ADCC activity, Jurkat-CD16A/NF luciferase reporter, EC50 [7]: 0.54 nM
in-vitro ADCC activity, Jurkat-CD16A/NF luciferase reporter, Top [7]: 212000
EC50 [11]: 0.08 nM

B6: Hu330-1-5M (antibody, human IgG1, kappa)
heavy: EVQLVESGGGLVQPGGSLRLSCAASGFGFSDYGMAWVRQAPGKGLEWVSFISNSAYSIYYADTVTGRFTISRDNAKNSLYLQMNSLRAEDTAVYYCARLGRGNSFAYWGQGTLVTVSSASTKGPSVFPLAPSSKSTSGGTAALGCLVKDYFPEPVTVSWNSGALTSGVHTFPAVLQSSGLYSLSSVVTVPSSSLGTQTYICNVNHKPSNTKVDKKVEPKSCDKTHTCPPCPAPELLGGPSVFLLPPKPKDTLMISRTPEVTCVVVDVSHEDPEVKFNWYVDGVEVHNAKTKPPEEQYNSTLRVVSILTVLHQDWLNGKEYKCKVSNKALPAPIEKTISKAKGQPREPQVYTLPPSRDELTKNQVSLTCLVKGFYPSDIAVEWESNGQPENNYKTTPLVLDSDGSFFLYSKLTVDKSRWQQGNVFSCSVMHEALHNHYTQKSLSLSPGK
light: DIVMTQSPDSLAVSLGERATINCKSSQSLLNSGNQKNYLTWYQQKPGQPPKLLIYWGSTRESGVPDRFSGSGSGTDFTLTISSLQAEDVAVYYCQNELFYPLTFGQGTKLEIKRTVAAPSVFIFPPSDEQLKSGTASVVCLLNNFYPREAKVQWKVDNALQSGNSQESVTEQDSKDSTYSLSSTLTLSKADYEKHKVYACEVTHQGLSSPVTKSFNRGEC
notes: also called Fc mutant of the humanized antibody; Fc-mutated humanized antibody
EC50 [1]: 0.76 nM
Top (%) [1]: 92.4%
fold increase of binding activity over IMAB362-similar-hG1 [15]: 15 fold
ADCC cytotoxicity by LDH method, PBMC effectors, EC50 [6]: 0.31 nM
ADCC activity by luciferase labeling, EC50 [13]: 0.17 nM
ADCC activity by luciferase labeling, Top [13]: 100000

Continued, in another order:

EC50 [1]: 9.78 nM
Top (%) [1]: 58.8%
MFI (CLDN18.2) [2]: 2180 MFI
binding result [3]: no binding
Kd [4]: 28.7 nM
MFI (CLDN18.1) [5]: 59 MFI
in-vitro ADCC activity, Jurkat-CD16A/NF luciferase reporter, EC50 [7]: 0.72 nM
in-vitro ADCC activity, Jurkat-CD16A/NF luciferase reporter, Top [7]: 216000
Kd [8]: 7.14 nM
koff [8]: 0.000399 s⁻¹
kon [8]: 55900 M⁻¹ s⁻¹
ADCC activity by luciferase labeling, EC50 [9]: 0.69 nM
ADCC activity by luciferase labeling, Top [9]: 63600
Bmax (MFI) [10]: 8220 MFI
EC50 [11]: 0.09 nM
Kd [12]: 9.44 nM
koff [12]: 0.00222 s⁻¹
kon [12]: 235000 M⁻¹ s⁻¹
ADCC activity by luciferase labeling, EC50 [13]: 1.49 nM
ADCC activity by luciferase labeling, Top [13]: 89600
B1: IMAB362-similar-hG1 (antibody, human IgG1, kappa)
heavy: not shown
light: DIVMTQSPSSLTVTAGEKVTMSCKSSQSLLNSGNQKNYLTWYQQKPGQPPKLLIYWASTRESGVPDRFTGSGSGTDFTLTISSVQAEDLAVYYCQNDYSYPFTFGSGTKLEIKRTVAAPSVFIFPPSDEQLKSGTASVVCLLNNFYPREAKVQWKVDNALQSGNSQESVTEQDSKDSTYSLSSTLTLSKADYEKHKVYACEVTHQGLSSPVTKSFNRGEC
notes: Human IgG1/kappa format; also called positive control antibody; positive antibody
ADCC cytotoxicity by LDH method, PBMC effectors, EC50 [6]: 2.47 nM

binding result [14]: no binding (tested: 6000 ng/ml)
EC50 [11]: 0.55 nM
B4: 1CHI (antibody, V domains shown)
VH: QIQLVQSGPELKKPGETVKISCKASGYTFTNYGMNWVKQAPGKGLKWMGWINTYTGEPTYADDFKGRFAFSLETSASTAYLQINNLKNEDMATYFCARDGQLGLRFAYWGQGTLVTVSA
VL: NIMMTQSPSSLAVSAGEKVTMSCKSSQSVLYSSNQKNYLAWYQQKPGQSPKLLIYWASTRESGVPDRFTGSGSGTDFTLTISSVQAEDLAVYYCHQYLSSRTFGGGTKLEIK
notes: Human-murine chimeric antibody with the constant region of human IgG1; also called chimeric antibody of B4B10G3

binding result [14]: no binding (tested: 6000 ng/ml)
EC50 [11]: 1.75 nM
B5: 18CHI (antibody, V domains shown)
VH: QVQLKESGPGLVAPSQSLSITCTVSGFSLTSYGVSWVRQPPGKGLEWLGVIWGDGSTNYHSALISRLSISKDNSKSQVFLKLNSLQTDDTATYYCAGGLRLWFAYWGQGTLVTVSA
VL: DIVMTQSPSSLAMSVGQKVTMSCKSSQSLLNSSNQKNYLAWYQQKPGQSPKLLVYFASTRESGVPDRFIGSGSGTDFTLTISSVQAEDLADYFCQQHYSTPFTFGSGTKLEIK
notes: Human-murine chimeric antibody with the constant region of human IgG1; also called chimeric antibody of C40B10D9
